Results on 41 sequences are retold here after the nanobody polyreactivity screen of Harvey et al. (2022).

The data set can be described thus: yeast display, Sf9 membrane polyspecificity reagent, FACS + sequencing; frameworks hold sequencing errors. In short, it runs like this: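 After 36–48 hours of galactose induction, yeast (Saccharomyces cerevisiae BJ5465) displaying a synthetic nanobody library were stained at 4 °C for 1 hour with 10% biotinylated, detergent-solubilized Sf9 membrane reagent. Streptavidin microbeads enriched the stained cells before FACS sorting into low and high (top ~1%) gates on anti-HA and streptavidin fluorescence. Each clone's polyreactivity label reflects its gate of origin.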
Consider “QVQLVESGGGLVQAGGSLRLSCAASGRIFKRYAMGWYRQAPGKERELVASITWSGGSTYYADSVKGRFTISRDNAKNTVYLQMNSLKPEDTAVYYCAARRTATTSRAYYYWGQGTQVTVSS”, for which the “polyreactivity (PSR sort gate)” value is recorded as “high polyreactivity”.

As for “QVQLVESGGGLVQAGGSLRLSCAASGRIFKRYAMGWYRQAPGKERELVATITNGGRTSYADSVKGRFTISRDNAKNTVYLQMNSLKPEDTAVYYCNAYGQTSRPLVYGWRYDYWGQGTQVTVSS”, the “polyreactivity (PSR sort gate)” value was “high polyreactivity”.

Regarding “QVQLVESGGGLVQAGGSLRLSCAASGRIFKSYAMGWYRQAPGKEMELVAAINWSGGSTYYADSVKGRFTISRDNAKNTVYLQMNSLKPEDTAVYYCNALYAVRSYDSWGQGTQVTVSS”, the “polyreactivity (PSR sort gate)” value is given as “high polyreactivity”.

For the sequence “QVQLVESGGGLVQAGGSLRLSCAASGRIFKSYAMGWYRQAPGKERELVASIRTGGTTNYADSVNGRFTISRDNAKNTVYLQMNSLKPEDTAVYDCNRGYYSYYGRYYYWGQGTQVTVSS”, the “polyreactivity (PSR sort gate)” value is “high polyreactivity”.

As to “QVQLVESGGGLVQAGGSLRLSCAASGRIFKSYVMGWYRQAPGKERELVAAISKRGGRTYYADSVKGRFTISRDNAKNTVYLQMNSLKPEDTAVYYCNATYPVGDFDYWGQGTQVTVSS”, the “polyreactivity (PSR sort gate)” value is reported as “high polyreactivity”.

With “QVQLVESGGGLVQAGGSLRLSCAASGRIFKTYTMGWYRQAPGKERELVAVSTSVGSTYYADSVKGRFTISRDNAKNTVYLQMNSLKPEDTAVYYCAAETWVPQGYDYWGQGTQVTVSS”, the “polyreactivity (PSR sort gate)” value is “high polyreactivity”.

Regarding “QVQLVESGGGLVQAGGSLRLSCAASGRIFKVNTMGWYRQAPGKERELVASIRGGGSTNYADSVKGRFTISRDNAKNTVNLQMHSPKPEDTAVYYCAAGTSKPTPIYGYWGQGTQVTVSS”, the “polyreactivity (PSR sort gate)” value was “low polyreactivity”.

With “QVQLVESGGGLVQAGGSLRLSCAASGRIFKVYAMGWYRQAPGKERELVAAISSRGGSTYYADSVKGRFTISRDNAKNTVYLQMNSLKPEDTAVYYCAALVTWLHPKGDYWGQGTQVTVSS”, the “polyreactivity (PSR sort gate)” value is listed as “high polyreactivity”.

As for “QVQLVESGGGLVQAGGSLRLSCAASGRIFKWYAMGWYRQAPGKERELVAAITSGGGSTYYADSVKGRFTISRDNAKNTVYLQMNSLKPEDTAVYYCNSWSSYGYDYWGQGTQVTVSS”, the “polyreactivity (PSR sort gate)” value is recorded as “high polyreactivity”.

As for “QVQLVESGGGLVQAGGSLRLSCAASGRIFKYNAMGWYRQAPGKERELVAVISFSGGSTYYADSVKGRFTISRDNAKNTVYLQMNSLKPEDTAVYYCNVRQHYSRRLKKWQMDCWGQGTQVTVSS”, the “polyreactivity (PSR sort gate)” value is listed as “high polyreactivity”.

Take “QVQLVESGGGLVQAGGSLRLSCAASGRIFKYYAMGWYRPAPGNETELVAAIRWSDSTYYADSVKGRFTSSRDNAKNTVYLQMNSLQPEDTAVYYCAALYRHPQEYRVGDYDYWGQGTQVTVSS”: the “polyreactivity (PSR sort gate)” value is reported as “low polyreactivity”.

As for “QVQLVESGGGLVQAGGSLRLSCAASGRIFKYYAMGWYRQAPGKERELFAAISRGGSTYYADSVKGRFTISRDNAKNTVYLQMNSLKPEDTAVYYCNAYRHGYVAYRRYDYWGQGTQVTVSS”, the “polyreactivity (PSR sort gate)” value is “high polyreactivity”.

As to “QVQLVESGGGLVQAGGSLRLSCAASGRIFKYYAMGWYRQAPGKERELVAAISRSGGSTYYADSVKGRFTISRDNAKKTVYLQMNSLKPEDTAVYYCAAGYKQATYDRIRTAYGYWGQGTQVTVSS”, the “polyreactivity (PSR sort gate)” value is listed as “high polyreactivity”.

Regarding “QVQLVESGGGLVQAGGSLRLSCAASGRIFKYYSMGWYRQAPGKERELVAAITRGGSTNYADSVKGRFTISRDNAKNTFYLQMKSLKTEDTEVYYCAVDTVRNHLMDYWGQGNQVTVSS”, the “polyreactivity (PSR sort gate)” value is “low polyreactivity”.

For the sequence “QVQLVESGGGLVQAGGSLRLSCAASGRIFKYYTMVWYRQAPGKERELVAAINSRGGTTYYADSVKGRFTISRDNAKNTVYLQMNSLKPVDTAVYYCAIDRIRDAGYRGLHRFDYWGQGTQVTLSS”, the “polyreactivity (PSR sort gate)” value is given as “low polyreactivity”.

As for “QVQLVESGGGLVQAGGSLRLSCAASGRIFKYYVMGWYRQAPGKERELVAGISSSGGSTYYADSVKGRFTISRDNAKNTVYLQMNSLKPEDTAVYYCAADYTFAYYNVKMDYWGQGTQVTVSS”, the “polyreactivity (PSR sort gate)” value is given as “low polyreactivity”.

Consider “QVQLVESGGGLVQAGGSLRLSCAASGRIFLFNAMGWYRQAPGKEREFVAAISASGGSTYYADSVKGRFTISRDNAKNTVYLQMNSLKPEDTAVYYCAADYLYTRDVDYDYWGQGTQVTVSS”, for which the “polyreactivity (PSR sort gate)” value was “low polyreactivity”.

In the case of “QVQLVESGGGLVQAGGSLRLSCAASGRIFLFYAMGWYRPAPGKERELVAAISVRGGSTYYADSVKGRFTISRDNAKNTVYLQMNSLKPEDTAVYYCAAKQKHTQQYGYWGQGTQVTVSS”, the “polyreactivity (PSR sort gate)” value is on record as “high polyreactivity”.

Regarding “QVQLVESGGGLVQAGGSLRLSCAASGRIFLGNAMGWYRQAPGKESELVAAITYSGRSTYYADSVKGRFTISRDNAKNTVYLQMNSLKPEDTAVYYSAARQYWTTDLPFQRYYYWGQGTQVTVSS”, the “polyreactivity (PSR sort gate)” value is given as “low polyreactivity”.

Regarding “QVQLVESGGGLVQAGGSLRLSCAASGRIFLGNVMGWYRQAPGKERELVAAISSGGSTNYADSVKGRFTISRDNAKNTVYLQMNSLKPEDTAVYYCAAYFVRDWKLYYYWGQGTQVTVSS”, the “polyreactivity (PSR sort gate)” value is listed as “low polyreactivity”.

For the sequence “QVQLVESGGGLVQAGGSLRLSCAASGRIFLINAMGWYRQARGKEWELVAAIRTGGNTYYADSVKGRFTISRDNAKTTVYLQMNSLKPEDTAVYYCAAARIYPYYRWSGAHRSDVDYWGQGTQVTVSS”, the “polyreactivity (PSR sort gate)” value is on record as “low polyreactivity”.

Consider “QVQLVESGGGLVQAGGSLRLSCAASGRIFLIYAMGWYRQAPGKDRELVAAISGRGGGTTYYADSVKGRFTISRDNAKITVYLQMNSLKPEATAVYYCAARNGGHKYYYWGQGTQVTVSS”, for which the “polyreactivity (PSR sort gate)” value is “high polyreactivity”.

As to “QVQLVESGGGLVQAGGSLRLSCAASGRIFLPNAMGWYRQAPGKERELVATITRGGGSTYYADSVKGRFTISRDNAKNTVYLQMNSLKPEDTAVYYCAKGYLLYQGHLPYWHRGGYWGQGTQVTVSS”, the “polyreactivity (PSR sort gate)” value is “high polyreactivity”.

For “QVQLVESGGGLVQAGGSLRLSCAASGRIFLRNAMGWFRQAPGKERELVAAIRGSGGSTYYADSVKRRFTISRDHAKTTVYLQTNSLKPEDTPVYYCAVASYYRYSHTYGYWGQGTQVTVSS”, the “polyreactivity (PSR sort gate)” value was “high polyreactivity”.

On to “QVQLVESGGGLVQAGGSLRLSCAASGRIFLRNDMGWYRQAPGKVRELVAGISSDGSTYYADSVKGRFTISRDNAKNTVYLQMTSLKPEDTAVYYCNAEDTPGAGDGNWGQGTQVTVSS”, for which the “polyreactivity (PSR sort gate)” value is “low polyreactivity”.

On to “QVQLVESGGGLVQAGGSLRLSCAASGRIFLSNAMGWYRQAPGKERELVAAISLSGGRTYYADSVKGRFTISRDNAKNTVYLQMNSLKPEDTAVYYCAAEFYPIRYYGRYDYWGQGTQVTVSS”, for which the “polyreactivity (PSR sort gate)” value was “low polyreactivity”.

As to “QVQLVESGGGLVQAGGSLRLSCAASGRIFLSYAIGWYRQAPGKERELVAAITSSGGSTYYADSVKGRFTISRDNAKNTVYFQMNSLKPEDTAVYYCAADYGDPRVNEYDYWGQGTQVTVSS”, the “polyreactivity (PSR sort gate)” value is “low polyreactivity”.

In the case of “QVQLVESGGGLVQAGGSLRLSCAASGRIFLSYAMGWYRQAPGKERELVAAISQSGSSKYYADSVKGRFTISRDNAKNTVYLQMNSLKPEDTAVYYCAARTGRKYYYWGQGTQVTVST”, the “polyreactivity (PSR sort gate)” value was “high polyreactivity”.

Consider “QVQLVESGGGLVQAGGSLRLSCAASGRIFLSYAMGWYRQAPGNEREFVAAITSSGGSTSYADSVKGRFTISRDNAKNTVYLQMNSLKPEDTAVYYCNDRAYIFGQMKYDYWGQGTQVTVSS”, for which the “polyreactivity (PSR sort gate)” value is listed as “low polyreactivity”.

As for “QVQLVESGGGLVQAGGSLRLSCAASGRIFLTKAMGWYRQAPGKERELVADISRGGSTYADSVKGRFTISRDNAKNTVYLQMNSLKPEDTAVYYCAADEYSPGDSRTRYDYWGQGTQVTVSS”, the “polyreactivity (PSR sort gate)” value is “low polyreactivity”.

As for “QVQLVESGGGLVQAGGSLRLSCAASGRIFLTNAMGWYRQAHGKERELVADISRGGSTYADSVKGRFTISRDNAKNTVYLQMNSLKPEDTAVYYCAADEYSPGDSRTRYDYWGQGTQVTVSS”, the “polyreactivity (PSR sort gate)” value is given as “low polyreactivity”.

On to “QVQLVESGGGLVQAGGSLRLSCAASGRIFLVYAMGGSRQAPGKDRELVAAISWSTGSTYYADSVKGRFTISRDNAKNTVYLQMNSLKPEDTAVYYCAAEPELDEYEHDYWGQGTQVTVSS”, for which the “polyreactivity (PSR sort gate)” value is recorded as “low polyreactivity”.

Consider “QVQLVESGGGLVQAGGSLRLSCAASGRIFLVYAMGWSRPAPGKERELVAAISYSGGRTYYADSVKGRFTISRDNAKNTVYLQMNSLKPEDTAVYYCAASPRYSYLAQGLDYDYWGQGTQVTVSS”, for which the “polyreactivity (PSR sort gate)” value was “high polyreactivity”.

On to “QVQLVESGGGLVQAGGSLRLSCAASGRIFLWYAMGWSRQAPGKERELVAGISSGASTYYADSVKGRFTISRDNAKNTVYLQMNSLKPEDTAVYYCAAPYDRLTGWSRYDYWGQGTQVTVSS”, for which the “polyreactivity (PSR sort gate)” value is reported as “high polyreactivity”.

In the case of “QVQLVESGGGLVQAGGSLRLSCAASGRIFLWYAMGWYRQAPGKERELVAAISSGGSTKYADSVKGRFTISRDNAKNTVYLQMNSLKPEDTAVYYCAATRKYSYVTYYYWGQGTQVTVSS”, the “polyreactivity (PSR sort gate)” value was “high polyreactivity”.

For “QVQLVESGGGLVQAGGSLRLSCAASGRIFLWYAMGWYRQAPGKERELVASITRSGVTTYYADSVKGRFTISRDNAKNTVYLQMNSLKPEDTAVYYCAAELYGWSGDTNDYWGQGTHVTVSS”, the “polyreactivity (PSR sort gate)” value is on record as “low polyreactivity”.

As for “QVQLVESGGGLVQAGGSLRLSCAASGRIFLYNAMAWYRQAPGKERELVASISSGDTTNYADSVKGRFTISRDNAKNTVYLQMNSLKPEDTAVYYCNAEYGTPYSWFDYWGQGTQVTVSS”, the “polyreactivity (PSR sort gate)” value was “low polyreactivity”.

As for “QVQLVESGGGLVQAGGSLRLSCAASGRIFLYNAMGWYRQAPGKEREFVATISYSGGRTNYADSVKGRFTISRDNAKNTVYLQMNSLKPEDTAVYYCAARWPWFYAHAYDYWGQGTQVTVSS”, the “polyreactivity (PSR sort gate)” value is recorded as “high polyreactivity”.

For “QVQLVESGGGLVQAGGSLRLSCAASGRIFLYNAMGWYRQAPGKERELVASISSGDTTNYADSVKGRFTISRDNAKKTVYLQMNSLKPEDTAVYYCAADGQYSVIVKYDSWGQGTQVTVSS”, the “polyreactivity (PSR sort gate)” value was “low polyreactivity”.

“QVQLVESGGGLVQAGGSLRLSCAASGRIFLYYTMGWYRQAPGKERELVADITWRGGSTYYADSVKGRFTISRDNAKNTVYLQMNSLKPVDTAVYYCNAVSVSSNRSDYWGQGTQVTVSS”: the “polyreactivity (PSR sort gate)” value is listed as “low polyreactivity”.

On to “QVQLVESGGGLVQAGGSLRLSCAASGRIFLYYTMGWYRQAPGKERELVATIRSGDSTNYADSVKGRFTISRDNAKNTVYLQMNSLKPEDTAVYYCAADWDIFQQGANGAPYDYWGQGTQVTVSS”, for which the “polyreactivity (PSR sort gate)” value is listed as “low polyreactivity”.
